molecular target: T1, Anti-CD28 Fab (SEQ ID NOs: 696, 697); test: phage binding ELISA on plate-captured anti-CD28 Fab pre-incubated with CD28 antigen (competitor: CD28)
T1 construct: In the phage ELISA the Fab was biotinylated and captured on neutravidin coated plates
T1 sequence (VH, as listed by the source, chain 1 of 2): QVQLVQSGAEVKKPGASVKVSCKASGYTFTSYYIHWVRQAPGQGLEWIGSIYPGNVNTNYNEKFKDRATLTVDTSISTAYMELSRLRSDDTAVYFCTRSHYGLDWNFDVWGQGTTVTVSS
T1 sequence (VL, as listed by the source, chain 2 of 2): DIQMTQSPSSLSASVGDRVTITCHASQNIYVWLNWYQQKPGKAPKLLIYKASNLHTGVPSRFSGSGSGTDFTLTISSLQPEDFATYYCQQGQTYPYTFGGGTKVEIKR
Description: (§1) Clonal phage were harvested as crude supematants and screened via standard ELISAs. […] Prior to the addition of clonal phage, wells were incubated with blocking buffer and CD28 antigen or blocking buffer alone. Without washing or aspirating, clonal phage supematants were then added to the wells and incubated for a short time. Wells were then washed followed by detection of bound phage using a horse radish conjugated anti-M13 antibody.

SCAAGAPYPWPECL [Phage-1518 (Peptide-92 library sequence, SEQ ID NO: 1814)] and TCSAGAAYAWPYCL [Phage-1519 (Peptide-92 library sequence, SEQ ID NO: 1815)] are the same in “Anti-CD28 Fab signal in the presence of CD28” value (“Anti-CD28 Fab signal” below): 0.07 for the first, 0.07 for the second.

First: LCAAGAAYPWPMCL [Phage-1520 (Peptide-92 library sequence, SEQ ID NO: 1816)]
Second: SCAAGATYEWPICL [Phage-1521 (Peptide-92 library sequence, SEQ ID NO: 1817)]
The “Anti-CD28 Fab signal” value of the first is higher: 0.06 for the first, 0.05 for the second.

molecular target: Anti-CD28 Fab (SEQ ID NOs: 696, 697); test: phage binding ELISA; anti-CD28 Fab on plate pre-incubated with CD28 antigen as competitor
Target sequence in this assay (VH, as listed by the source, chain 1 of 2): as the sequence (VH, as listed by the source, chain 1 of 2) above
Target sequence in this assay (VL, as listed by the source, chain 2 of 2): as the sequence (VL, as listed by the source, chain 2 of 2) above
Description: as §1

Going from YCSAGAQWPWPICL [Phage-1461 peptide (Peptide-92 library, SEQ ID NO: 1757)] to TCAAGASYQWPLCF [Phage-1462 peptide (Peptide-92 library, SEQ ID NO: 1758)], the “Anti-CD28 Fab signal” value falls from 0.08 to 0.07.

SCAAGASYSWPACF [Phage-1463 peptide (Peptide-92 library, SEQ ID NO: 1759)] and SCSAGFHYPWPICL [Phage-1464 peptide (Peptide-92 library, SEQ ID NO: 1760)] are the same in “Anti-CD28 Fab signal” value: 0.07 for the first, 0.07 for the second.

Compared with LCKPGVPYQWPTCL [Phage-1465 peptide (Peptide-92 library, SEQ ID NO: 1761)], MCTAGALYNWPTCL [Phage-1466 peptide (Peptide-92 library, SEQ ID NO: 1762)] is higher in “Anti-CD28 Fab signal” value: 0.07 for the first, 0.09 for the second.

First: TCAAGAHYPWPYCL [Phage-1467 peptide (Peptide-92 library, SEQ ID NO: 1763)]
Second: WCAEFFNYHWPLCF [Phage-1468 peptide (Peptide-92 library, SEQ ID NO: 1764)]
The “Anti-CD28 Fab signal” value of the first is lower: 0.05 for the first, 0.06 for the second.

Compared with TCSAGFSLQLSICL [Phage-1469 peptide (Peptide-92 library, SEQ ID NO: 1765)], SCAAGASYPWPQCL [Phage-1470 peptide (Peptide-92 library, SEQ ID NO: 1766)] is higher in “Anti-CD28 Fab signal” value: 0.06 for the first, 0.11 for the second.

Going from LCTAGLAYNWPTCL [Phage-1471 peptide (Peptide-92 library, SEQ ID NO: 1767)] to GCAAGAHYPWPFCL [Phage-1472 peptide (Peptide-92 library, SEQ ID NO: 1768)], the “Anti-CD28 Fab signal” value rises from 0.05 to 0.06.

First: TCAAGAVWEWPMCF [Phage-1473 peptide (Peptide-92 library, SEQ ID NO: 1769)]
Second: TCAAGANYPWPLCL [Phage-1474 peptide (Peptide-92 library, SEQ ID NO: 1770)]
The “Anti-CD28 Fab signal” value of the first is lower: 0.07 for the first, 0.08 for the second.

molecular target: T2, Anti-CD28 Fab (SEQ ID NOs: 696, 697); test: phage binding ELISA; clonal phage on biotinylated anti-CD28 Fab captured on neutravidin, anti-M13-HRP detection
T2 construct: Biotinylated and captured on neutravidin coated plates in the phage ELISA
T2 sequence (VH, as listed by the source, chain 1 of 2): as the sequence (VH, as listed by the source, chain 1 of 2) above
T2 sequence (VL, as listed by the source, chain 2 of 2): as the sequence (VL, as listed by the source, chain 2 of 2) above
Description: as §1

MCSAGATYPWPYCL (peptide, not shown: large carriers) [Phage-1504] and LCSAGATYPWPWCM (peptide, not shown: large carriers) [Phage-1505] are the same in “Anti-CD28 Fab (SEQ ID NOs: 696, 697) signal” value: 1.64 for the first, 1.64 for the second.

First: DCWGDAPYPWRVCL (peptide, not shown: large carriers) [Phage-1506]
Second: WCTAGFSYKLSICL (peptide, not shown: large carriers) [Phage-1507]
The “Anti-CD28 Fab (SEQ ID NOs: 696, 697) signal” value of the first is higher: 1.64 for the first, 1.63 for the second.

For LCSAGAMYQWPTCL (peptide, not shown: large carriers) [Phage-1508], the “Anti-CD28 Fab (SEQ ID NOs: 696, 697) signal” value was 1.63.

molecular target: T1, Anti-CD28 Fab (SEQ ID NOs: 696, 697); test: phage binding ELISA; clonal phage on plate-captured biotinylated anti-CD28 Fab, anti-M13 HRP detection
Description: as §1

SCAAGAPYPWPECL [Phage-1518 (Peptide-92 library sequence, SEQ ID NO: 1814)] and TCSAGAAYAWPYCL [Phage-1519 (Peptide-92 library sequence, SEQ ID NO: 1815)] are the same in “Anti-CD28 Fab (SEQ ID NOs: 696, 697) signal” value: 1.59 for the first, 1.59 for the second.

LCAAGAAYPWPMCL [Phage-1520 (Peptide-92 library sequence, SEQ ID NO: 1816)] and SCAAGATYEWPICL [Phage-1521 (Peptide-92 library sequence, SEQ ID NO: 1817)] are the same in “Anti-CD28 Fab (SEQ ID NOs: 696, 697) signal” value: 1.59 for the first, 1.59 for the second.

molecular target: T2, Anti-CD28 Fab (SEQ ID NOs: 696, 697); test: phage binding ELISA on captured anti-CD28 Fab; competitor CD28 antigen pre-incubated in the wells
Description: as §1

Going from MCSAGATYPWPYCL (peptide, not shown: large carriers) [Phage-1504] to LCSAGATYPWPWCM (peptide, not shown: large carriers) [Phage-1505], the “Anti-CD28 Fab signal” value falls from 0.1 to 0.06.

Going from DCWGDAPYPWRVCL (peptide, not shown: large carriers) [Phage-1506] to WCTAGFSYKLSICL (peptide, not shown: large carriers) [Phage-1507], the “Anti-CD28 Fab signal” value falls from 0.07 to 0.06.

In the case of LCSAGAMYQWPTCL (peptide, not shown: large carriers) [Phage-1508], the “Anti-CD28 Fab signal” value is reported as 0.06.

molecular target: Anti-CD28 Fab (SEQ ID NOs: 696, 697); test: phage binding ELISA; biotinylated anti-CD28 Fab on neutravidin plate, clonal phage detected with anti-M13 HRP
Target sequence in this assay (VH, as listed by the source, chain 1 of 2): as the sequence (VH, as listed by the source, chain 1 of 2) above
Target sequence in this assay (VL, as listed by the source, chain 2 of 2): as the sequence (VL, as listed by the source, chain 2 of 2) above
Description: as §1

YCSAGAQWPWPICL [Phage-1461 peptide (Peptide-92 library, SEQ ID NO: 1757)] and TCAAGASYQWPLCF [Phage-1462 peptide (Peptide-92 library, SEQ ID NO: 1758)] are the same in “Anti-CD28 Fab (SEQ ID NOs: 696, 697) signal” value: 1.79 for the first, 1.79 for the second.

SCAAGASYSWPACF [Phage-1463 peptide (Peptide-92 library, SEQ ID NO: 1759)] and SCSAGFHYPWPICL [Phage-1464 peptide (Peptide-92 library, SEQ ID NO: 1760)] are the same in “Anti-CD28 Fab (SEQ ID NOs: 696, 697) signal” value: 1.79 for the first, 1.79 for the second.

LCKPGVPYQWPTCL [Phage-1465 peptide (Peptide-92 library, SEQ ID NO: 1761)] and MCTAGALYNWPTCL [Phage-1466 peptide (Peptide-92 library, SEQ ID NO: 1762)] are the same in “Anti-CD28 Fab (SEQ ID NOs: 696, 697) signal” value: 1.78 for the first, 1.78 for the second.

TCAAGAHYPWPYCL [Phage-1467 peptide (Peptide-92 library, SEQ ID NO: 1763)] and WCAEFFNYHWPLCF [Phage-1468 peptide (Peptide-92 library, SEQ ID NO: 1764)] are the same in “Anti-CD28 Fab (SEQ ID NOs: 696, 697) signal” value: 1.77 for the first, 1.77 for the second.

TCSAGFSLQLSICL [Phage-1469 peptide (Peptide-92 library, SEQ ID NO: 1765)] and SCAAGASYPWPQCL [Phage-1470 peptide (Peptide-92 library, SEQ ID NO: 1766)] are the same in “Anti-CD28 Fab (SEQ ID NOs: 696, 697) signal” value: 1.77 for the first, 1.77 for the second.

First: LCTAGLAYNWPTCL [Phage-1471 peptide (Peptide-92 library, SEQ ID NO: 1767)]
Second: GCAAGAHYPWPFCL [Phage-1472 peptide (Peptide-92 library, SEQ ID NO: 1768)]
The “Anti-CD28 Fab (SEQ ID NOs: 696, 697) signal” value of the first is higher: 1.77 for the first, 1.76 for the second.

First: TCAAGAVWEWPMCF [Phage-1473 peptide (Peptide-92 library, SEQ ID NO: 1769)]
Second: TCAAGANYPWPLCL [Phage-1474 peptide (Peptide-92 library, SEQ ID NO: 1770)]
The “Anti-CD28 Fab (SEQ ID NOs: 696, 697) signal” value of the first is higher: 1.76 for the first, 1.75 for the second.

— US20260242478A1 (published 2026)
